In this assay the target is T1, purified p85α wild type (cleaved from GST) (bovine, UniProt P23727 1-724).
T1 construct: p85α (PI3K regulatory subunit alpha), bovine, residues 1-724; also called wild type p85α; source: E. coli, expressed as GST fusion, cleaved from GST, purified; not shown: GST, N-terminal, cleaved
The experiment in a line: pull-down; GST-PTEN (wild type or mutant; 5 μg) immobilized on glutathione Sepharose beads; precleared purified p85α cleaved from GST (5 μg in 1% milk, 500 μl PBS pH 7.3); 30 minutes at room temperature; 5 washes; anti-p85α immunoblot, quantified with Odyssey software. The following applies: both partners purified. In general terms: In western blotting, separated proteins are transferred to a membrane and probed.

B1: GST-PTEN wild type (1–403) (natural protein)
chain: not shown
notes: PTEN, human, residues 1-403 (74 kDa as GST fusion); vector pGEX6P1; The activity assay used His6-PTEN instead; also called wild type PTEN; source: E. coli, GST fusion immobilized on glutathione Sepharose beads
On to B1, for which the binding result was “binds”.

The values are drawn from publication PMC6319338, “Insight into the PTEN – p85α interaction and lipid binding properties of the p85α BH domain” (Oncotarget, 2018).
